The target of assay [1] is Mut24 (Influenza A virus A/Brisbane/02/2018 (H1N1)). Briefly: BLI (Octet) after 7D37C and trypsin; footnote to the marked cell. For orientation: In BLI a coated tip is dipped into the sample, and binding shifts an interference pattern.
Assay [2] has as its target Mut18 (Influenza A virus A/Brisbane/02/2018 (H1N1)). As to the kind of experiment: BLI (Octet) after 7D37C and trypsin; HA on Ni-NTA tips.
Assay [3] deals with Mut10 (Influenza A virus A/Brisbane/02/2018 (H1N1)). Described as above.
Assay [4] concerns the target Mut23 (Influenza A virus A/Brisbane/02/2018 (H1N1)). Described as above.
The target of assay [5] is Mut24 (Influenza A virus A/Brisbane/02/2018 (H1N1)). The description is as above.
The target of assay [6] is Mut27 (Influenza A virus A/Brisbane/02/2018 (H1N1)). Described as above.
Assay [7] addresses Mut17 (Influenza A virus A/Brisbane/02/2018 (H1N1)). The description is as above.
Assay [8] concerns the target Mut18 (Influenza A virus A/Brisbane/02/2018 (H1N1)). Briefly: BLI (Octet), HA-foldon-His on Ni-NTA tips, IgG in solution.
For assay [9], the target named is Mut10 (Influenza A virus A/Brisbane/02/2018 (H1N1)). Described as above.
The target of assay [10] is Mut23 (Influenza A virus A/Brisbane/02/2018 (H1N1)). Described as above.
For assay [11], the target named is Mut24 (Influenza A virus A/Brisbane/02/2018 (H1N1)). The assay is described as above.
Assay [12] deals with Mut27 (Influenza A virus A/Brisbane/02/2018 (H1N1)). Described as above.
Assay [13] addresses Mut17 (Influenza A virus A/Brisbane/02/2018 (H1N1)). Described as above.

With CR9114 monoclonal antibody (IgG), in assay [1], the fold reduction of affinity (KD) against control amounted to 100 fold. For the same substance, the Octet response (nm) in assay [2] was 0.464 nm; in assay [3] it was 0.729 nm; in [4] it was 0.808 nm; in assay [5] it was 0.0617 nm; in assay [6] it was 0.314 nm; in assay [7] it was 0.754 nm. Also, the Octet response (nm) in [8] was found to be 0.731 nm; in assay [9] it was 0.805 nm; in [10] it was 0.901 nm; in assay [11] it was 0.872 nm; in assay [12], 0.337 nm; in [13], 0.814 nm.
FI6v3 monoclonal antibody (IgG): the Octet response (nm) in assay [2] came to 0.484 nm; in assay [3] it was 0.737 nm; in assay [4], 0.745 nm; in assay [5] it was 0.406 nm; in assay [6], 0.313 nm; in [7], 0.748 nm. Besides, the Octet response (nm) in assay [8] came to 0.811 nm; in [9], 0.968 nm; in [10], 0.984 nm; in assay [11], 0.93 nm; in assay [12] it was 0.398 nm; in assay [13], 0.878 nm.

For the origin of these results see US20260207732A1.
